Read-outs that look alike come from different tables or passages of the source.
How the values were obtained:
alpha-thrombin [1] = biological target: T1, alpha-thrombin (Homo sapiens, UniProt P00734;P00734 328-363;364-622); assay: native MS
alpha-thrombin [2] = biological target: T1, alpha-thrombin; assay: ITC
alpha-thrombin [3] = biological target: T1, alpha-thrombin; assay: ITC; remark: listed apart in the source
alpha-thrombin [4] = biological target: T1, alpha-thrombin; assay: ITC; remark: listed apart in the source
alpha-thrombin [5] = biological target: T1, alpha-thrombin; assay: EMSA

B1: ss(ATTCG)18 (ssDNA)
DNA: ATTCGATTCGATTCGATTCGATTCGATTCGATTCGATTCGATTCGATTCGATTCGATTCGATTCGATTCGATTCGATTCGATTCGATTCG
- binding result (alpha-thrombin [1]): no binding

B2: ss(ATTCC)18 (structured_DNA)
DNA: ATTCCATTCCATTCCATTCCATTCCATTCCATTCCATTCCATTCCATTCCATTCCATTCCATTCCATTCCATTCCATTCCATTCCATTCC
- Kd (alpha-thrombin [2]): 174 nM
- Kd (alpha-thrombin [3]): 746 nM
- Kd (alpha-thrombin [4]): 1460 nM

B3: ss(GGAAT)18 (ssDNA)
DNA: GGAATGGAATGGAATGGAATGGAATGGAATGGAATGGAATGGAATGGAATGGAATGGAATGGAATGGAATGGAATGGAATGGAATGGAAT
- binding result (alpha-thrombin [5]): no binding

Source: article PMC12260427
